B1: OR4K15 (parent)
chain: GUUAACGGUCAUAGGCCAUGGAAACUAGGAGCACCAUUUCGCUGCCAGUGAAGAAAUGAACAAAGAAAAUCUGGGCCAGGCAGGCAUCAAAAGAAAUAGUCUUGCGCUCAACCAGAAAGUCUGUAAUCAUUUUAAGGGUA

Variants of: B1
Assay: self-cleavage, relative activity (ratio to wild type); higher = more cleavage; in vitro, sequencing; the parent is a self-cleaving ribozyme

Compared with GUUAACGGUCAUAGGCCAUGGAAACUGGGAGCACCAUUUCGCUGCCAGUGAAGAAAUGAACAAAGAAAAUCUGGGCCAGGCAGGCAUCAAAAGAAAUAGUCUUGCGCUCAACCAGAAAGUCUGUAAUCAUUUUAAGGGCA [A27G U139C], GUUAACGGUCAUAGGCCAUGGAAACUUGGAGCACCAUUUCGCUGCCAGUGAAGAAAUGAAUAAAGAAAAUCUGGGCCAGGCAGGCAUCAAAAGAAAUAGUCUUGCGCUCAACCAGAAAGUCUGUAAUCAUUUUAAGGGUA [A27U C61U] is lower in self-cleavage: 1.05 for the first, 0.58 for the second.

First: GUUAACGGUCAUAGGCCAUGGAAACUUGGAGCACCAUUUCGCUGCCAGUGAAGAAAUGUACAAAGAAAAUCUGGGCCAGGCAGGCAUCAAAAGAAAUAGUCUUGCGCUCAACCAGAAAGUCUGUAAUCAUUUUAAGGGUA [A27U A59U]
Second: GUUAACGGUCAUAGGCCAUGGAAACUAAGAGCACCAUUUCGCUGCCAGUGAAGAAAUGAACAAAGAAAAUCUGGGCCAGGCAGGCAUCAAGAGAAAUAGUCUUGCGCUCAACCAGAAAGUCUGUAAUCAUUUUAAGGGUA [G28A A91G]
The self-cleavage of the first is higher: 1.64 for the first, 1.19 for the second.

First: GUUAACGGUCAUAGGCCAUGGAAACUUGGAGCACCAUUUCGCUGCCAGUGAAGAAAUGAACAAAGAAAAUCUGGGCCAGGCAGGCAUCAAAAGAAAUAGUCUUGCGCUCAACCAGAAAGUCUGUAAUCAUUCUAAGGGUA [A27U U132C]
Second: GUUAACGGUCAUAGGCCAUGGAAACUAAGAGCACCAUUUCGCUGCCAGUGAUGAAAUGAACAAAGAAAAUCUGGGCCAGGCAGGCAUCAAAAGAAAUAGUCUUGCGCUCAACCAGAAAGUCUGUAAUCAUUUUAAGGGUA [G28A A52U]
The self-cleavage of the first is higher: 1.39 for the first, 1.15 for the second.

First: GUUAACGGUCAUAGGCCAUGGAAACUUGGAGCACCAUUUCGCUGCCAGUGAAGAAAUGAACAAAGAAAAUCUGGGCCAGGCAGGCAUCAAAAGAAAUAGUCUUGCGCUCAACCAGAAAGUCUGUAAUCAUUUUAAGGGUA [A27U]
Second: GUUAACGGUCAUAGGCCAUGGAAACUAAGAGCACCAUUUCGCUGCCAGUGAAGAAAUGAACAAAGAAAAUCUGGGCCAGGCAGGCAUCAAAAGAAAUAGUCUUGCGCACAACCAGAAAGUCUGUAAUCAUUUUAAGGGUA [G28A U108A]
The self-cleavage of the first is higher: 0.91 for the first, 0.01 for the second.

First: GUUAACGGUCAUAGGCCAUGGAAACUACGAGCACCAUUUCGCUGCCAGUGAAGAAAUGAACAAAGAAAAUCUGGGCCAGGCAGGCAUCAAAAGAAAUAGUCUUGCGCUCAACCAGAAAGUCUGUAAUCACUUUAAGGGUA [G28C U130C]
Second: GUUAACGGUCAUAGGCCAUGGAAACUUGGAGCACCAUUUCGCUUCCAGUGAAGAAAUGAACAAAGAAAAUCUGGGCCAGGCAGGCAUCAAAAGAAAUAGUCUUGCGCUCAACCAGAAAGUCUGUAAUCAUUUUAAGGGUA [A27U G44U]
The self-cleavage of the first is lower: 0.64 for the first, 2.13 for the second.

Compared with GUUAACGGUCAUAGGCCAUGGAAACUUGGAGCACCAUUUCGCUGCCAGUGAAGAAAUGAACAAAGAAAAUCUGGGCCAGGCAGGCAUCAAAAGAAACAGUCUUGCGCUCAACCAGAAAGUCUGUAAUCAUUUUAAGGGUA [A27U U97C], GUUAACGGUCAUAGGCCAUGGAAACUUGGAGCACCAUUUCGCUGCCAGUGAAGAAAUGAACAAAGAAAAUCUGGGCCAGGCAGGCAUCAAAAGAAAUAGUCUUGCGCUCAACCAGAAAGCCUGUAAUCAUUUUAAGGGUA [A27U U120C] is lower in self-cleavage: 1.75 for the first, 0.85 for the second.

First: GUUAACGGUCAUAGGCCAUGGAAACUUGGAGCACCAUUUCGCUGCCAGUGAAGAAAUGAACAAAGAAAAUCUGGGCCAGGCAGGCAUCAAAAGAAAUAGUCUUGCGCUCAACCAGAAAGUCUGUAAUCAUUUUGAGGGUA [A27U A134G]
Second: GUUAACGGUCAUAGGCCAUGGAAACUAAGAGCACCAUUUCGCUGCCAGUGAAGAGAUGAACAAAGAAAAUCUGGGCCAGGCAGGCAUCAAAAGAAAUAGUCUUGCGCUCAACCAGAAAGUCUGUAAUCAUUUUAAGGGUA [G28A A55G]
The self-cleavage of the first is lower: 1.3 for the first, 1.7 for the second.

Compared with GUUAACGGUCAUAGGCCAUGGAAACUUGGAGCACCAUUUCGCUGCCAGUGAUGAAAUGAACAAAGAAAAUCUGGGCCAGGCAGGCAUCAAAAGAAAUAGUCUUGCGCUCAACCAGAAAGUCUGUAAUCAUUUUAAGGGUA [A27U A52U], GUUAACGGUCAUAGGCCAUGGAAACUUGGAGCACCAUUUCGCUGCCAGUGAAGAAGUGAACAAAGAAAAUCUGGGCCAGGCAGGCAUCAAAAGAAAUAGUCUUGCGCUCAACCAGAAAGUCUGUAAUCAUUUUAAGGGUA [A27U A56G] is lower in self-cleavage: 2 for the first, 1.21 for the second.

First: GUUAACGGUCAUAGGCCAUGGAAACUAAGAGCACCAUUUCGCUGCCAGUGAAGAAAUGAACAAAGAAAAUCUGGGCCAGGCAGGCAUCAAAAGAAAUAGUCUUGCGCUCAACCAGAAAGUCUGCAAUCAUUUUAAGGGUA [G28A U124C]
Second: GUUAACGGUCAUAGGCCAUGGAAACUAAGAGCGCCAUUUCGCUGCCAGUGAAGAAAUGAACAAAGAAAAUCUGGGCCAGGCAGGCAUCAAAAGAAAUAGUCUUGCGCUCAACCAGAAAGUCUGUAAUCAUUUUAAGGGUA [G28A A33G]
The self-cleavage of the first is lower: 0.6 for the first, 0.69 for the second.

First: GUUAACGGUCAUAGGCCAUGGAAACUAAGAGCACCAUUUCGCUGCCAGUGAAGAAAUGAACAAGGAAAAUCUGGGCCAGGCAGGCAUCAAAAGAAAUAGUCUUGCGCUCAACCAGAAAGUCUGUAAUCAUUUUAAGGGUA [G28A A64G]
Second: GUUAACGGUCAUAGGCCAUGGAAACUUGGAGCACCAUUUCGCUGCCAGUGAAGGAAUGAACAAAGAAAAUCUGGGCCAGGCAGGCAUCAAAAGAAAUAGUCUUGCGCUCAACCAGAAAGUCUGUAAUCAUUUUAAGGGUA [A27U A54G]
The self-cleavage of the first is lower: 1.4 for the first, 1.64 for the second.

First: GUUAACGGUCAUAGGCCAUGGAAACUAAGAGCACCAUUUCGCUGCCAGUGAAGAAAUGAACAAAGAAAAUCUGGGCCAGGCAGGCAUUAAAAGAAAUAGUCUUGCGCUCAACCAGAAAGUCUGUAAUCAUUUUAAGGGUA [G28A C88U]
Second: GUUAACGGUCAUAGGCCAUGGAAACUGGGAGCACCAUUUCGCUGCCAGUGAAGAAAUGAACAAAGAAAAUCUGGGCCAGGCAGGCAUCAAAAGAAAUAGUCUUGCGCUCAACCAGAAAGUCUGUAAUCAUUUCAAGGGUA [A27G U133C]
The self-cleavage of the first is higher: 2.33 for the first, 1.58 for the second.

First: GUUAACGGUCAUAGGCCAUGGAAACUAAGAGCACCAUUUCGCUGCCAGUGAAGAAAUGAACAAAGAAAAUCUGGGCCAGGCAGGCAUCAAAAGAAAUAGUCUUGCGCUCAACCAGAAAGUCUGUAAUCAUUUUAAGGGUG [G28A A140G]
Second: GUUAACGGUCAUAGGCCAUGGAAACUUGGAGCACCAUUUCGCUGCCAGUGAAGAAAUGAACAAGGAAAAUCUGGGCCAGGCAGGCAUCAAAAGAAAUAGUCUUGCGCUCAACCAGAAAGUCUGUAAUCAUUUUAAGGGUA [A27U A64G]
The self-cleavage of the first is higher: 2 for the first, 1.58 for the second.

Going from GUUAACGGUCAUAGGCCAUGGAAACUUGGAGCACCAUCUCGCUGCCAGUGAAGAAAUGAACAAAGAAAAUCUGGGCCAGGCAGGCAUCAAAAGAAAUAGUCUUGCGCUCAACCAGAAAGUCUGUAAUCAUUUUAAGGGUA [A27U U38C] to GUUAACGGUCAUAGGCCAUGGAAACUUGGAGCACCAUUUCGCUGCCAGUGAAGAAAUGAACAAAGAAAAUCUGGGCCAGGCAGGCAUCAGAAGAAAUAGUCUUGCGCUCAACCAGAAAGUCUGUAAUCAUUUUAAGGGUA [A27U A90G], the self-cleavage falls from 1.83 to 0.74.

Compared with GUUAACGGUCAUAGGCCAUGGAAACUAAGAGCACCAUUUCGCUGCCAGUGAAGAAAUGAACAAAGAAAAUCUGGGCCAGGCAGGCAUCAAAAGAAAUAGUCUUGCGCUCAACCAGAAAGCCUGUAAUCAUUUUAAGGGUA [G28A U120C], GUUAACGGUCAUAGGCCAUGGAAACUUGGAGCACCAUUUCGCUGCCAGUGAAGAAACGAACAAAGAAAAUCUGGGCCAGGCAGGCAUCAAAAGAAAUAGUCUUGCGCUCAACCAGAAAGUCUGUAAUCAUUUUAAGGGUA [A27U U57C] is lower in self-cleavage: 1.28 for the first, 1.25 for the second.

First: GUUAACGGUCAUAGGCCAUGGAAACUAAGAGCACCAUUUCGCUGCCAGUGAAGAAAUGAACAAAGAAAAUCUGGGCCAGGCAGGCAUCAAAAGAAAUAGUCUUGCGCUCAACCUGAAAGUCUGUAAUCAUUUUAAGGGUA [G28A A114U]
Second: GUUAACGGUCAUAGGCCAUGGAAACUGGGAGCACCAUUUCGCUGCCAGUGAAGAAAUGAACAAAGAAAAUCUGGGCCAGGCAGGCAUCAAAAGAAAUAGUCUUGCGCUCAACCAGAAAGUCUGUAAUCAUUCUAAGGGUA [A27G U132C]
The self-cleavage of the first is lower: 0.18 for the first, 0.79 for the second.

Compared with GUUAACGGUCAUAGGCCAUGGAAACUUGGAGCACCAUUUCGCUGCCAGUGAAGAAAUGAACAAAGAAAAUCUGGGCCAGGCAGGCAUCAAAAGAAAUAGUCUUGCGCUCAACCAGAAAGUCCGUAAUCAUUUUAAGGGUA [A27U U122C], GUUAACGGUCAUAGGCCAUGGAAACUAAGAGCACCAUUUCGCUGCCAGUGAAGAAAUGAACAAAGAAAAUCUGGGCCAGGCAGGCAUCAAAAGAAAUAGUCCUGCGCUCAACCAGAAAGUCUGUAAUCAUUUUAAGGGUA [G28A U102C] is lower in self-cleavage: 1.42 for the first, 0.81 for the second.

Going from GUUAACGGUCAUAGGCCAUGGAAACUUGGAGCACCAUUUCGCUGCCAGUGAAGAAAUGAACAAAGAAAAUCUGGGCCAUGCAGGCAUCAAAAGAAAUAGUCUUGCGCUCAACCAGAAAGUCUGUAAUCAUUUUAAGGGUA [A27U G79U] to GUUAACGGUCAUAGGCCAUGGAAACUUGGAGCACCAUUUCGCUGCCAGUGAAGAAAUGAACAAAGAAAAUCUGGGCCAGGCAGGCAUCAAAAGAAAUAGUCUUGCGCUCAACCUGAAAGUCUGUAAUCAUUUUAAGGGUA [A27U A114U], the self-cleavage rises from 0.09 to 0.14.

Going from GUUAACGGUCAUAGGCCAUGGAAACUUGGAGCACCAUUUCGCUGCCAGUGAAGAAAUGAACAAAGAAAAUCUGGGCCAGGCAGGCAUCAAAAGAAAUAGUCUUGCGCUCAACCAAAAAGUCUGUAAUCAUUUUAAGGGUA [A27U G115A] to GUUAACGGUCAUAGGCCAUGGAAACUUGGAGCACCAUUUCGCUGCCAGUGAAGAAAUGAACAAAGAAAAACUGGGCCAGGCAGGCAUCAAAAGAAAUAGUCUUGCGCUCAACCAGAAAGUCUGUAAUCAUUUUAAGGGUA [A27U U70A], the self-cleavage rises from 0.07 to 1.68.

Compared with GUUAACGGUCAUAGGCCAUGGAAACUAAGAGCACCAUUUCGCUGCCAGUGAAGAAAUGAACAAAGAAAAACUGGGCCAGGCAGGCAUCAAAAGAAAUAGUCUUGCGCUCAACCAGAAAGUCUGUAAUCAUUUUAAGGGUA [G28A U70A], GUUAACGGUCAUAGGCCAUGGAAACUUGGAGCACCACUUCGCUGCCAGUGAAGAAAUGAACAAAGAAAAUCUGGGCCAGGCAGGCAUCAAAAGAAAUAGUCUUGCGCUCAACCAGAAAGUCUGUAAUCAUUUUAAGGGUA [A27U U37C] is higher in self-cleavage: 1.02 for the first, 1.42 for the second.

First: GUUAACGGUCAUAGGCCAUGGAAACUUGGAGCACCAUUUCGCUGCCAGUGAAGAAAUGAACGAAGAAAAUCUGGGCCAGGCAGGCAUCAAAAGAAAUAGUCUUGCGCUCAACCAGAAAGUCUGUAAUCAUUUUAAGGGUA [A27U A62G]
Second: GUUAACGGUCAUAGGCCAUGGAAACUUGGAGCACCAUUUCGCUGCCAGUGAAGAAAUGAACAAAGAAAAUCUGGGCCAGGCAGGCAUCAAAAGAAAUAGUCUUGCGCUCAACCAGAAAGUCUGUAAUCACUUUAAGGGUA [A27U U130C]
The self-cleavage of the first is higher: 1.61 for the first, 1.07 for the second.

With GUUAACGGUCAUAGGCCAUGGAAACUUGGAGCACCAUUUCGCUGCCAGUGAAGAAAUGAACAAAGAAAAUCUGGGCCAGGCAGGCAUCAAAAGAAAUAGUCUUGCGCUCAACCAGAAAGUCUGUAAUCAUUUUAAGGGCA [A27U U139C] the self-cleavage was 1.56.
